Experimental data published in PMC5389482.

Test system: ParF (plasmid TP228 (segregation module))
Test: fluorescence polarization
Conditions: 5 mM ATP, 5 mM Mg acetate, 150 mM K glutamate; 150 mM potassium glutamate (50-350 mM in salt series), pH 7.5, 5 mM magnesium acetate, 5 mM ATP or ADP, 25 C, 1 nM DNA

AATTACTCAATTACTCAATT (double strand) [20-mer]
Kd: 156 nM
